# Reference: patent publication US20240226357A1, “Sanitization Method for Affinity Chromatography Matrices” (priority 2015, published 2024)
# Assay: LC chromatograms (LC-MS) of ligands before and after incubation in 0.1 M peracetic acid
# Assay type: physicochemical
# Settings: 1 h incubation in 0.1 M peracetic acid, UV 280 nm
# Experimental: The kinetics was measured by Surface Plasmon Resonance on a Biacore™ instrument. […] 1 ml rPrL and KappaSelect ligand were diluted to 10 mg/ml. • 3. Reference sample (0 h) was withdrawn, 100 μl and buffer exchanged to 50 mM Ammonium Bicarbonate. • 4. 10% 1 M PAA was added and the incubations started. • 5. Samples were withdrawn after 1, 2, 4, 8, 16 and 24 h, 100 μl and buffer exchanged to 50 mM Ammonium Bicarbonate to stop the oxidation reaction. • 6. The concentrations were measured in all samples by measuring the UV absorbance at 276 nm. • 7. The samples were then analyzed on LC-MS and Biacore.
molecule,measurement,value
rPrL: recombinant Protein L (protein) AVENKEETPETPETDSEEEVTIKANLIFANGSTQTAEFKGTFEKATSEAYAYADTLKKDNGEYTVDVADKGYTLNIKFAGKEKTPEEPKEEVTIKANLIYADGKTQTAEFKGTFEEATAEAYRYADALKKDNGEYTVDVADKGYTLNIKFAGKEKTPEEPKEEVTIKANLIYADGKTQTAEFKGTFEEATAEAYRYADLLAKENGKYTVDVADKGYTLNIKFAGKEKTPEEPKEEVTIKANLIYADGKTQTAEFKGTFAEATAEAYRYADLLAKENGKYTADLEDGGYTINIRFAGKKVDEKPEE,LC chromatograms before and after SIP (degradation),no signs of degradation
